Measurements taken from the supplement of paper PMC9876800.

Each substance was assayed on peptide library, one residue held at a place counted from the S/T acceptor (assay: relative phosphorylation of the sub-library (ratio to the mean residue at this position); human; higher = residue favoured). Conditions: P fixed; at -4.
Outline: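 Relative sub-library phosphorylation is the ratio of each sub-library's signal to the mean residue at that position. The signal came from phosphorimaging of spots on streptavidin membranes, quantified by densitometry, after purified recombinant kinases reacted with biotinylated degenerate peptide sub-libraries in 384-well plates. Reactions held 50 μM peptide and 50 μM ATP spiked with γ-32P-ATP for 90 min under kinase-specific conditions.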

Chain of PAK3, construct: Full length (O75914 whole entry, looked up): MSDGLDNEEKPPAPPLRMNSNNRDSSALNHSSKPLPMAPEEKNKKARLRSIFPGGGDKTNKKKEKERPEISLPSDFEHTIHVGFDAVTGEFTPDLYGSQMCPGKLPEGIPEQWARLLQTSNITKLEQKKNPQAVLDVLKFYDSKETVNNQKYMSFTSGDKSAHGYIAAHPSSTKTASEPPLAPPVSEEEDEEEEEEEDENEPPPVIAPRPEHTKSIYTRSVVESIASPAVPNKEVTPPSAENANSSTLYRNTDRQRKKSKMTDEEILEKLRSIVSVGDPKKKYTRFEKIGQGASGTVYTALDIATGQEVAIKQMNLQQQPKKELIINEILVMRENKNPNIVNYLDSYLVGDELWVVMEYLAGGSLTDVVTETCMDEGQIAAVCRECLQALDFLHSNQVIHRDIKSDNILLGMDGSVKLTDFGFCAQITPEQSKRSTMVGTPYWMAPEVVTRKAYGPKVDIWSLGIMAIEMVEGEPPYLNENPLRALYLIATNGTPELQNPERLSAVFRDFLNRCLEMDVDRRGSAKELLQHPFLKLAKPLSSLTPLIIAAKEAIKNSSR
Chain of PRPF4B, construct: aa519-end (Q13523 519-1007, looked up): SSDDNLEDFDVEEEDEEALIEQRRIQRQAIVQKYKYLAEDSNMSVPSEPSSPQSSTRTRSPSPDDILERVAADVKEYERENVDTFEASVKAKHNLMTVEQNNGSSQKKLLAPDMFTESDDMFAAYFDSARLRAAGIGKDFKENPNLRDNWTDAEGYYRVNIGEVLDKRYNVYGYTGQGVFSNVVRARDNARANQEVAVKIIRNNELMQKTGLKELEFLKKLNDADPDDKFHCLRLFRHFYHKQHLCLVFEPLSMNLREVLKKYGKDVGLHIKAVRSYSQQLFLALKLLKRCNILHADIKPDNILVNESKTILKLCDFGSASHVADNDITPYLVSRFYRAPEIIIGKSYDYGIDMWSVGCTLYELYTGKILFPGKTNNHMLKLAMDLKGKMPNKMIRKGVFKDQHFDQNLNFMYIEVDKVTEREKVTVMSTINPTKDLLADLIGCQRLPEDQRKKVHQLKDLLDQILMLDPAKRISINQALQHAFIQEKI
Chain of RPS6KA6, construct: Full length (Q9UK32 whole entry, looked up): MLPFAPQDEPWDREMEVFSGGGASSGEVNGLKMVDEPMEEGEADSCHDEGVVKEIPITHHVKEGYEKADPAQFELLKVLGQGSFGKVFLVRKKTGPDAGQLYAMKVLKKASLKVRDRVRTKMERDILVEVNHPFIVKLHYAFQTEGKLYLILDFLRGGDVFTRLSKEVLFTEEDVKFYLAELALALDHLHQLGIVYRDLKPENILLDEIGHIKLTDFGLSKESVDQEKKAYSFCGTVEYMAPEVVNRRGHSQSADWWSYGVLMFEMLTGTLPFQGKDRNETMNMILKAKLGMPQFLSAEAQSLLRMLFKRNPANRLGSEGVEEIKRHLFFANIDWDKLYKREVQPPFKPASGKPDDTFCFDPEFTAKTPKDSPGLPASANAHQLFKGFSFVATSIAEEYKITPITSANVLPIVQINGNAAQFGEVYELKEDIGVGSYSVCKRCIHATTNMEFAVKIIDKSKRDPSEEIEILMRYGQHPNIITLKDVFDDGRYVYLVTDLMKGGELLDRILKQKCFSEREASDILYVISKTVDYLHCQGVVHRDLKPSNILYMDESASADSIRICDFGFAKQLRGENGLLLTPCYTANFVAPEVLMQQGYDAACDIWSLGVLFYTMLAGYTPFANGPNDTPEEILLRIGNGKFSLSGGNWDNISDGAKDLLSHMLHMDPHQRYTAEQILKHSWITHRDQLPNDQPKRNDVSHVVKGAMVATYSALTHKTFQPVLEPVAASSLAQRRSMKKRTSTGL
Chain of TTK, construct: Full length (P33981 whole entry, looked up): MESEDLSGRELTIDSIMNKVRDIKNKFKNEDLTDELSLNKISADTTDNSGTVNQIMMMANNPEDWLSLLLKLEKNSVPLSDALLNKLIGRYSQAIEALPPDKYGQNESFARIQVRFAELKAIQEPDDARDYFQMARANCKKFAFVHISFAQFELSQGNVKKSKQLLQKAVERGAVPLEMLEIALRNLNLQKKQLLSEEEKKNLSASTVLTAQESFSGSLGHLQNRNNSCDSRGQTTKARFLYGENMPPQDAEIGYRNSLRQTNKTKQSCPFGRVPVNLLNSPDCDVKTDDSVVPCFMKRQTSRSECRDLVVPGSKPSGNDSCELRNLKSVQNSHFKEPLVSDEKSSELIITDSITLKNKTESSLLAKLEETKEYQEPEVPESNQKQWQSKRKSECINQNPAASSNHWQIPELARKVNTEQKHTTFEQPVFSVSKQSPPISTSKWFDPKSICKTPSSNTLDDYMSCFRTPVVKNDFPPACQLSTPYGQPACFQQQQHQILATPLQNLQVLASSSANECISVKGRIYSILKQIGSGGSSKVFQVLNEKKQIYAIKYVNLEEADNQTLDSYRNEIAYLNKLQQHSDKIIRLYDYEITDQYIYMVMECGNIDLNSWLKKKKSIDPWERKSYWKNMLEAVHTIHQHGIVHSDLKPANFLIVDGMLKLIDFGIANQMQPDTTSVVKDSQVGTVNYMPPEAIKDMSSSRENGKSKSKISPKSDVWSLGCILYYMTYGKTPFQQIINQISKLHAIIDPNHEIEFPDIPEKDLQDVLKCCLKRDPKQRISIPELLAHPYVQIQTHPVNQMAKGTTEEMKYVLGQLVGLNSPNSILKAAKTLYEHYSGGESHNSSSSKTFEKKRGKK
Chain of GRK5, construct: Full length (P34947 whole entry, looked up): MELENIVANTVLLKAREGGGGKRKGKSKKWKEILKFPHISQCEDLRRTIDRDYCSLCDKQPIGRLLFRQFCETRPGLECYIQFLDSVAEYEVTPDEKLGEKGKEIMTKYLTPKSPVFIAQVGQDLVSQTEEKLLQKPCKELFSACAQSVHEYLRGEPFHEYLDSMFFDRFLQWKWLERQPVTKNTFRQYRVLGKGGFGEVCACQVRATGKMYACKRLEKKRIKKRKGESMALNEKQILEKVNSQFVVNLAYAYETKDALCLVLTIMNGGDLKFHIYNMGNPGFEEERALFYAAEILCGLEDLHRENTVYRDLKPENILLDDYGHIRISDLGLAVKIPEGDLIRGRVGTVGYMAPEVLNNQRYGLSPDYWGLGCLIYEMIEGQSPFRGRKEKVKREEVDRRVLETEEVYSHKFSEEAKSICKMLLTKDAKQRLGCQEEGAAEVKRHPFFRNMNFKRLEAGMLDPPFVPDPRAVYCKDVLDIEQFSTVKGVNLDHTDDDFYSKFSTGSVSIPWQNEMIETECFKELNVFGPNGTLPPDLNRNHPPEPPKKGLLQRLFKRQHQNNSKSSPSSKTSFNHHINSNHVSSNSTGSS
Chain of MELK, construct: aa1-340 (Q14680 1-340, looked up): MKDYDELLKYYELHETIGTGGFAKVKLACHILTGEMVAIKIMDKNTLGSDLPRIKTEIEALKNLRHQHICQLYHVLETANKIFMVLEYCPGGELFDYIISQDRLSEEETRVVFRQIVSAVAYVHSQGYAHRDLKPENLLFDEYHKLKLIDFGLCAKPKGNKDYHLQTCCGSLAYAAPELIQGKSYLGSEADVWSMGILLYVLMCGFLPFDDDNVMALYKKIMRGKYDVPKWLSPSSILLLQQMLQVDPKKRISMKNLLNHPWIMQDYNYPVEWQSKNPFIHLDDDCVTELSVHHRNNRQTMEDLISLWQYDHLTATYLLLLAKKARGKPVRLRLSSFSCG
Chain of CLK3, construct: Full length (P49761 whole entry, looked up): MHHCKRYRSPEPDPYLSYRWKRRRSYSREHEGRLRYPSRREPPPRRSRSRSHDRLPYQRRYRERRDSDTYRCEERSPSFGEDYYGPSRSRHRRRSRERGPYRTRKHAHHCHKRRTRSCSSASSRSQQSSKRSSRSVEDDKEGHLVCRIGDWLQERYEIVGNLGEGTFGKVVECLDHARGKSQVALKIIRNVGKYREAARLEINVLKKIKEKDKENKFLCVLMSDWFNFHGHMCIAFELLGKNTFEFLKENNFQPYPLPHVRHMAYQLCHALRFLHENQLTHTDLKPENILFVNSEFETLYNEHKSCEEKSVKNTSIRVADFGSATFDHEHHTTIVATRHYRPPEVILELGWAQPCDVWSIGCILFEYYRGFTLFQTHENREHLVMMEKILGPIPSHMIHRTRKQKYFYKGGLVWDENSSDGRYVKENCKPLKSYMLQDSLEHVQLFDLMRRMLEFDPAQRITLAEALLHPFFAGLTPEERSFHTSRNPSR
Chain of MASTL, construct: Full length (Q96GX5 whole entry, looked up): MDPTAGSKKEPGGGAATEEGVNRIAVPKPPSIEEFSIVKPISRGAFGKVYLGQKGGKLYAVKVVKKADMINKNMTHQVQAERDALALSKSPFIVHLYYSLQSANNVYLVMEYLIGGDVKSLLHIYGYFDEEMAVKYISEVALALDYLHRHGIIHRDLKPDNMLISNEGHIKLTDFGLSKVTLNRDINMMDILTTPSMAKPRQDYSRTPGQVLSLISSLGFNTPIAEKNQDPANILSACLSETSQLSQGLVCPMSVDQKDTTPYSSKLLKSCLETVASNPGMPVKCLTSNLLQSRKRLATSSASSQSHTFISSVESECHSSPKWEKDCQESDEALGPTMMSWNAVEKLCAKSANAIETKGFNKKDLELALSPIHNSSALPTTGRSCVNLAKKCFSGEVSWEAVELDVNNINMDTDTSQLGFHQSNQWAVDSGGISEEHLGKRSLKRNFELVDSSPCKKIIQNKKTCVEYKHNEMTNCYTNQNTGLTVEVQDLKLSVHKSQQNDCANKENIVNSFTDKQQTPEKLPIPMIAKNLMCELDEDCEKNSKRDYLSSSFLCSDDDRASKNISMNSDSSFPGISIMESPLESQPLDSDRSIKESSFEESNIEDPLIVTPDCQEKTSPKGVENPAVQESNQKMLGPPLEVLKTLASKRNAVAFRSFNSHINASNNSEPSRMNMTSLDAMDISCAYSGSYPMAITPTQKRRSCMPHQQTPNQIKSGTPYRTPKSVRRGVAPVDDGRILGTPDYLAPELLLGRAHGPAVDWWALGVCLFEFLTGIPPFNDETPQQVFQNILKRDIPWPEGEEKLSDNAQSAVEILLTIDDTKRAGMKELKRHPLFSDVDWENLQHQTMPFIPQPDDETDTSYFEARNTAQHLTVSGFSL

Substance	relative phosphorylation
PRPF4B, construct: aa519-end (from UniProt Q13523)	1.13

Same assay, conditions: P fixed; at -5

Substance	relative phosphorylation
PAK3, construct: Full length (from UniProt O75914)	1.09
MASTL, construct: Full length (from UniProt Q96GX5)	1.07
MELK, construct: aa1-340 (from UniProt Q14680)	1.03
CLK3, construct: Full length (from UniProt P49761)	0.949
RPS6KA6, construct: Full length (from UniProt Q9UK32)	0.755
GRK5, construct: Full length (from UniProt P34947)	1.02
TTK, construct: Full length (from UniProt P33981)	1.39
PRPF4B, construct: aa519-end (from UniProt Q13523)	1.18

Same assay, conditions: Q fixed; at +1

Substance	relative phosphorylation
PAK3, construct: Full length (from UniProt O75914)	1.09
MASTL, construct: Full length (from UniProt Q96GX5)	1.09
MELK, construct: aa1-340 (from UniProt Q14680)	1.54
CLK3, construct: Full length (from UniProt P49761)	0.983
RPS6KA6, construct: Full length (from UniProt Q9UK32)	1.17
GRK5, construct: Full length (from UniProt P34947)	1.21
TTK, construct: Full length (from UniProt P33981)	1.71
PRPF4B, construct: aa519-end (from UniProt Q13523)	0.696

Same assay, conditions: Q fixed; at +2

Substance	relative phosphorylation
PAK3, construct: Full length (from UniProt O75914)	0.729
MASTL, construct: Full length (from UniProt Q96GX5)	0.761
MELK, construct: aa1-340 (from UniProt Q14680)	0.723
CLK3, construct: Full length (from UniProt P49761)	0.898
RPS6KA6, construct: Full length (from UniProt Q9UK32)	0.724
GRK5, construct: Full length (from UniProt P34947)	0.74
TTK, construct: Full length (from UniProt P33981)	0.974
PRPF4B, construct: aa519-end (from UniProt Q13523)	0.791

Same assay, conditions: Q fixed; at +3

Substance	relative phosphorylation
PAK3, construct: Full length (from UniProt O75914)	0.886
MASTL, construct: Full length (from UniProt Q96GX5)	0.804
MELK, construct: aa1-340 (from UniProt Q14680)	1.05
CLK3, construct: Full length (from UniProt P49761)	0.707
RPS6KA6, construct: Full length (from UniProt Q9UK32)	1.08
GRK5, construct: Full length (from UniProt P34947)	0.808
TTK, construct: Full length (from UniProt P33981)	0.748
PRPF4B, construct: aa519-end (from UniProt Q13523)	0.923

Same assay, conditions: Q fixed; at +4

Substance	relative phosphorylation
PAK3, construct: Full length (from UniProt O75914)	1.17
MASTL, construct: Full length (from UniProt Q96GX5)	1.09
MELK, construct: aa1-340 (from UniProt Q14680)	0.952
CLK3, construct: Full length (from UniProt P49761)	1.01
RPS6KA6, construct: Full length (from UniProt Q9UK32)	1.04
GRK5, construct: Full length (from UniProt P34947)	1.01
TTK, construct: Full length (from UniProt P33981)	1.1
PRPF4B, construct: aa519-end (from UniProt Q13523)	0.951

Same assay, conditions: Q fixed; at -1

Substance	relative phosphorylation
PAK3, construct: Full length (from UniProt O75914)	1
MASTL, construct: Full length (from UniProt Q96GX5)	1.15
MELK, construct: aa1-340 (from UniProt Q14680)	1.12
CLK3, construct: Full length (from UniProt P49761)	1.62
RPS6KA6, construct: Full length (from UniProt Q9UK32)	1
GRK5, construct: Full length (from UniProt P34947)	0.872
TTK, construct: Full length (from UniProt P33981)	1.16
PRPF4B, construct: aa519-end (from UniProt Q13523)	1.25

Same assay, conditions: Q fixed; at -2

Substance	relative phosphorylation
PAK3, construct: Full length (from UniProt O75914)	0.715
MASTL, construct: Full length (from UniProt Q96GX5)	0.839
MELK, construct: aa1-340 (from UniProt Q14680)	1.42
CLK3, construct: Full length (from UniProt P49761)	0.904
RPS6KA6, construct: Full length (from UniProt Q9UK32)	0.644
GRK5, construct: Full length (from UniProt P34947)	0.737
TTK, construct: Full length (from UniProt P33981)	0.873
PRPF4B, construct: aa519-end (from UniProt Q13523)	0.608

Same assay, conditions: Q fixed; at -3

Substance	relative phosphorylation
PAK3, construct: Full length (from UniProt O75914)	0.878
MASTL, construct: Full length (from UniProt Q96GX5)	0.985
MELK, construct: aa1-340 (from UniProt Q14680)	0.784
CLK3, construct: Full length (from UniProt P49761)	0.852
RPS6KA6, construct: Full length (from UniProt Q9UK32)	0.548
GRK5, construct: Full length (from UniProt P34947)	0.867
TTK, construct: Full length (from UniProt P33981)	0.975
PRPF4B, construct: aa519-end (from UniProt Q13523)	0.439

Same assay, conditions: Q fixed; at -4

Substance	relative phosphorylation
PAK3, construct: Full length (from UniProt O75914)	1.05
MASTL, construct: Full length (from UniProt Q96GX5)	0.913
MELK, construct: aa1-340 (from UniProt Q14680)	0.844
CLK3, construct: Full length (from UniProt P49761)	0.996
RPS6KA6, construct: Full length (from UniProt Q9UK32)	0.917
GRK5, construct: Full length (from UniProt P34947)	0.85
TTK, construct: Full length (from UniProt P33981)	0.981
PRPF4B, construct: aa519-end (from UniProt Q13523)	0.858

Same assay, conditions: Q fixed; at -5

Substance	relative phosphorylation
PAK3, construct: Full length (from UniProt O75914)	0.93
MASTL, construct: Full length (from UniProt Q96GX5)	0.841
MELK, construct: aa1-340 (from UniProt Q14680)	0.902
CLK3, construct: Full length (from UniProt P49761)	0.973
RPS6KA6, construct: Full length (from UniProt Q9UK32)	0.657
GRK5, construct: Full length (from UniProt P34947)	0.789
TTK, construct: Full length (from UniProt P33981)	0.857
PRPF4B, construct: aa519-end (from UniProt Q13523)	0.998

Same assay, conditions: R fixed; at +1

Substance	relative phosphorylation
PAK3, construct: Full length (from UniProt O75914)	1.35
MASTL, construct: Full length (from UniProt Q96GX5)	0.614
MELK, construct: aa1-340 (from UniProt Q14680)	1.72
CLK3, construct: Full length (from UniProt P49761)	0.409
RPS6KA6, construct: Full length (from UniProt Q9UK32)	0.949
GRK5, construct: Full length (from UniProt P34947)	1.13
TTK, construct: Full length (from UniProt P33981)	1.51
PRPF4B, construct: aa519-end (from UniProt Q13523)	0.686

Same assay, conditions: R fixed; at +2

Substance	relative phosphorylation
PAK3, construct: Full length (from UniProt O75914)	0.853
MASTL, construct: Full length (from UniProt Q96GX5)	0.579
MELK, construct: aa1-340 (from UniProt Q14680)	1.28
CLK3, construct: Full length (from UniProt P49761)	1.35
RPS6KA6, construct: Full length (from UniProt Q9UK32)	1.31
GRK5, construct: Full length (from UniProt P34947)	1.12
TTK, construct: Full length (from UniProt P33981)	1.91
PRPF4B, construct: aa519-end (from UniProt Q13523)	0.868

Same assay, conditions: R fixed; at +3

Substance	relative phosphorylation
PAK3, construct: Full length (from UniProt O75914)	0.819
MASTL, construct: Full length (from UniProt Q96GX5)	0.555
MELK, construct: aa1-340 (from UniProt Q14680)	1.12
CLK3, construct: Full length (from UniProt P49761)	2.93
RPS6KA6, construct: Full length (from UniProt Q9UK32)	1.01
GRK5, construct: Full length (from UniProt P34947)	0.927
TTK, construct: Full length (from UniProt P33981)	1.01
PRPF4B, construct: aa519-end (from UniProt Q13523)	1.42

Same assay, conditions: R fixed; at +4

Substance	relative phosphorylation
PAK3, construct: Full length (from UniProt O75914)	0.933
MASTL, construct: Full length (from UniProt Q96GX5)	0.726
MELK, construct: aa1-340 (from UniProt Q14680)	1.03
CLK3, construct: Full length (from UniProt P49761)	1.1
RPS6KA6, construct: Full length (from UniProt Q9UK32)	0.906
GRK5, construct: Full length (from UniProt P34947)	0.899
TTK, construct: Full length (from UniProt P33981)	1.64
PRPF4B, construct: aa519-end (from UniProt Q13523)	1.15

Same assay, conditions: R fixed; at -1

Substance	relative phosphorylation
PAK3, construct: Full length (from UniProt O75914)	2.06
MASTL, construct: Full length (from UniProt Q96GX5)	0.889
MELK, construct: aa1-340 (from UniProt Q14680)	1.71
CLK3, construct: Full length (from UniProt P49761)	2.1
RPS6KA6, construct: Full length (from UniProt Q9UK32)	1.53
GRK5, construct: Full length (from UniProt P34947)	1.12
TTK, construct: Full length (from UniProt P33981)	1.15
PRPF4B, construct: aa519-end (from UniProt Q13523)	1.58

Same assay, conditions: R fixed; at -2

Substance	relative phosphorylation
PAK3, construct: Full length (from UniProt O75914)	6.37
MASTL, construct: Full length (from UniProt Q96GX5)	0.767
MELK, construct: aa1-340 (from UniProt Q14680)	1.79
CLK3, construct: Full length (from UniProt P49761)	2.72
RPS6KA6, construct: Full length (from UniProt Q9UK32)	5.3
GRK5, construct: Full length (from UniProt P34947)	1.05
TTK, construct: Full length (from UniProt P33981)	0.854
PRPF4B, construct: aa519-end (from UniProt Q13523)	0.625

Same assay, conditions: R fixed; at -3

Substance	relative phosphorylation
PAK3, construct: Full length (from UniProt O75914)	3.73
MASTL, construct: Full length (from UniProt Q96GX5)	1.55
MELK, construct: aa1-340 (from UniProt Q14680)	5.37
CLK3, construct: Full length (from UniProt P49761)	3.78
RPS6KA6, construct: Full length (from UniProt Q9UK32)	8.88
GRK5, construct: Full length (from UniProt P34947)	1.04
TTK, construct: Full length (from UniProt P33981)	1.29
PRPF4B, construct: aa519-end (from UniProt Q13523)	0.502

Same assay, conditions: R fixed; at -4

Substance	relative phosphorylation
PAK3, construct: Full length (from UniProt O75914)	1.86
MASTL, construct: Full length (from UniProt Q96GX5)	1
MELK, construct: aa1-340 (from UniProt Q14680)	1.81
CLK3, construct: Full length (from UniProt P49761)	2.05
RPS6KA6, construct: Full length (from UniProt Q9UK32)	2.69
GRK5, construct: Full length (from UniProt P34947)	0.87
TTK, construct: Full length (from UniProt P33981)	1.16
PRPF4B, construct: aa519-end (from UniProt Q13523)	0.73

Same assay, conditions: R fixed; at -5

Substance	relative phosphorylation
PAK3, construct: Full length (from UniProt O75914)	2.24
MASTL, construct: Full length (from UniProt Q96GX5)	0.953
MELK, construct: aa1-340 (from UniProt Q14680)	1.67
CLK3, construct: Full length (from UniProt P49761)	2.05
RPS6KA6, construct: Full length (from UniProt Q9UK32)	4.15
GRK5, construct: Full length (from UniProt P34947)	0.806
TTK, construct: Full length (from UniProt P33981)	1.09
PRPF4B, construct: aa519-end (from UniProt Q13523)	1.28

Same assay, conditions: V fixed; at +1

Substance	relative phosphorylation
PAK3, construct: Full length (from UniProt O75914)	1.12
MASTL, construct: Full length (from UniProt Q96GX5)	0.944
MELK, construct: aa1-340 (from UniProt Q14680)	0.705
CLK3, construct: Full length (from UniProt P49761)	0.619
RPS6KA6, construct: Full length (from UniProt Q9UK32)	1.78
GRK5, construct: Full length (from UniProt P34947)	1.06
TTK, construct: Full length (from UniProt P33981)	1.45
PRPF4B, construct: aa519-end (from UniProt Q13523)	1.56

Same assay, conditions: V fixed; at +2

Substance	relative phosphorylation
PAK3, construct: Full length (from UniProt O75914)	1.11
MASTL, construct: Full length (from UniProt Q96GX5)	1.16
MELK, construct: aa1-340 (from UniProt Q14680)	1.54
CLK3, construct: Full length (from UniProt P49761)	0.52
RPS6KA6, construct: Full length (from UniProt Q9UK32)	0.575
GRK5, construct: Full length (from UniProt P34947)	1.51
TTK, construct: Full length (from UniProt P33981)	0.963
PRPF4B, construct: aa519-end (from UniProt Q13523)	1.44

Same assay, conditions: V fixed; at +3

Substance	relative phosphorylation
PAK3, construct: Full length (from UniProt O75914)	0.955
MASTL, construct: Full length (from UniProt Q96GX5)	0.875
